We go through four molecules from patent US20110287023A1 (AstraZeneca / MedImmune, published 2011).

Experiment [1] concerns the target T1, recombinant HMG1 produced in E. coli as a calmodulin binding protein (CBP) fusion (human). The experiment is described as follows: cell-based or functional assay.
In experiment [2] the target is T1, recombinant HMG1 produced in E. coli as …. The experiment is described as follows: ELISA, coated RAGE-Fc, rHMG1 preincubated with antibody. As for the experimental part: HMG1 binding to RAGE-Ig by ELISA: 50 μl/well of RAGE-Fc fusion protein at 5 μg/ml in PBS was added to each well of an ELISA plate and incubated overnight at 4° C. The plate was then blocked with 200 μl of 5% milk at 37° C. for 1 hr and washed 3× with PBS/Tween. 50 μl/well of diluted HMGB1 solution. For dose curves, HMGB1 concentrations started at 4 ug/ml in PBS. For antibody blocking the HMGB1 was preincubated in another plate with human anti-HMG1 antibodies or buffer, then transferred to the RAGE-coated plate. The plates were then incubated at room temperature for 2 hours and washed 3×. To detect any HMG1 bound to the immobilized RAGE-Fc a mixture of biotinylated mouse anti-HMG1 mAbs (10D4, 4H11, 3E10 and 5C12) each at 1 ug/ml, total Ab: 4 ug/ml, were added to each well and the plate was incubated for 1 hour at room temperature. The plate was then washed and Strepavidin-HPR was added to each well and incubated 15 min. The plate was then washed 3× and blotted dry. 100 μl of TMB developing agent was added and the plate read at 650 nm. Values were calculated as percent of inhibition with HMG1 alone equal to 0% inhibition. The data in FIG. 9 and summarized in Table 1 represent the average of two separate experiments.
Background: ELISA stands for enzyme-linked immunosorbent assay.

Experiment [3] has the same target. The experiment is described as follows: BIAcore 3000, mAb amine-coupled to CM5, HMG1 injected, steady-state model. A digest of the protocol:
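Each mAb amine-coupled to a CM5 chip alongside a reference flow cell; two-fold serial dilutions of E. coli-expressed CBP-fusion HMG1 injected at slow flow. Surfaces regenerated with 1M NaCl-50 mM NaOH. Affinity derived from binding curves by a steady-state model.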

The target of experiment [4] is T2, HMG1 B Box peptide amino acids 91-169.
T2 construct: also called HMG1 peptide 91-169
T2 peptide: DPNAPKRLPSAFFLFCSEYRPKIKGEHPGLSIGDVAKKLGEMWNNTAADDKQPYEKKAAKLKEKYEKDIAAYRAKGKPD
Kind of experiment: ELISA, HMG1 B Box peptide 91-169 coated at 10 ug/ml, antibody titrated, anti-human IgG-HRP, OD 450. The procedure: The plate was then blocked with 4% milk powder dissolved in PBS at 37° C. for 1 hour. The blocking solution was removed and replaced with human anti-HMG1 antibodies at various concentrations (see FIGS. 5A-B). […] HRP activity was detected with Sureblue HRP substrate (KPL). Plates were read at 450 nm using a Kinetic Microplate Reader (Molecular Devices). […] After washing and blocking with 1% BSA in PBS, the biotinylated peptides were individually added into the avidin coated wells and incubated for 30 min at room temperature. The serial diluted antibody G4, S16 and S6 at the initial concentration at 10 μg/ml were then transferred into the wells followed by adding mouse anti human IgG-HRP conjugate (Pierce). Detection was accomplished by adding 50 μl of tetramethylbenzidine (TMB) substrate (KPL) and the absorbance was read at 450 nm.

The target in experiment [5] is T3, HMG1 purified from calf (bovine) thymus (bovine, UniProt P10103 2-215).
T3 construct: also called Calf thymus HMGB1; thymus HMG1
T3 sequence (looked up): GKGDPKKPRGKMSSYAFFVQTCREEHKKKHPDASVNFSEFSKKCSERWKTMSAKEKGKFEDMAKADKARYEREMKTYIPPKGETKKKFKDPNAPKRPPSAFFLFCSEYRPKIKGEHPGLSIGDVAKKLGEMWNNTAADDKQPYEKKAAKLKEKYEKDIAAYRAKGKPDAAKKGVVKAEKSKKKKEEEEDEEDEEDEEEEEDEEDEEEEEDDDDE
Kind of experiment: direct ELISA, calf thymus HMGB1 coated at 5 ug/mL, antibody at 10 ug/mL, anti-human kappa/lambda-HRP, OD 490. A digest of the protocol: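 Calf thymus HMGB1 or HMGB2 coated at 5 ug/mL in 10 mM PBS pH 7.2 overnight at 4 °C; anti-HMGB1 antibody added at 10 ug/mL final in PBS + 1% BSA, 1 h at room temperature. Detection with HRP anti-human kappa plus lambda (1:1000, 1 h), OPD substrate 20-30 min in the dark, H₂SO₄ stop, absorbance 490 nm.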

Experiment [6] addresses T4, HMG1 B Box peptide amino acids 150-183.
T4 peptide: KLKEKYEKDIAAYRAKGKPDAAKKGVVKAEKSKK
The experiment is described as follows: ELISA, HMG1 B Box peptide 150-183 coated at 10 ug/ml, antibody titrated, OD 450. A digest of the protocol:
(§1)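 Plates blocked with 4% milk/PBS, or biotinylated peptides captured on avidin wells after 1% BSA blocking (30 min RT). Human anti-HMG1 antibodies titrated or serially diluted from 10 μg/ml, detected with anti-human IgG-HRP and TMB substrate, absorbance at 450 nm.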

Experiment [7] concerns the target T2, HMG1 B Box peptide amino acids 91-169. The experiment is described as follows: ELISA, HMG1 B Box peptide 91-169 coated at 10 ug/ml, antibody titrated, OD 450. A digest of the protocol: as §1

T1 sequence (P09429 whole entry, the tested form may be a part): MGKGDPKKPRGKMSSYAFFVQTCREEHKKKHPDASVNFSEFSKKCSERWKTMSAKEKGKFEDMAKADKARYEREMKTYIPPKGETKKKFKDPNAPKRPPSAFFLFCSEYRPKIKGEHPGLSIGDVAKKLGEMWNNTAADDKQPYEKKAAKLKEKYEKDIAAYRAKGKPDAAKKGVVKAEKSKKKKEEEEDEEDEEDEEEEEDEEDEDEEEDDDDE

B1: human anti-HMG1 antibody S16 (antibody, IgG1, V domains shown)
VH: EVQLLESGGGLVQPGGSLRLSCAASGFTFSWYSMLWVRQAPGKGLEWVSYISPSGGFTNYADSVKGRFTISRDNSKNTLYLQMNSLRAEDTAVYYCARWDYNSGWYYDHWGQGTLVTVSS
VL: DIQMTQSPDTLSLSPGERATLSCRASQSVNSRNLAWYQQKPGQAPRLLIYGASTRATGIPDRFSGSVSGTEFTLTISSLQPDDFATYYCQQYNSYFTFGQGTKLEIK
notes: full length IgG1 made from a human Fab phage clone; also called ATCC PTA-6259
With B1, in experiment [1], the “IC50 IL-1β” value came to 6.05 µg/mL, the “IC50 IL-6” value was 0.56 nM, the “IC50 IL-12” value was found to be 1.24 µg/mL and the “IC50 TNF-α” value is 1.44 µg/mL. For the same molecule, in experiment [2], the “percent inhibition of HMG1 binding to RAGE” value is at least 35%. Moreover, the Kd (commonly the concentration at which binding is half-saturated) in experiment [3] amounted to 23 nM. Moreover, the binding result in experiment [4] was “binds”. The binding result in experiment [5] was “binds”.

B2: human anti-HMG1 antibody G4 (antibody, IgG1, V domains shown)
VH: EVQLLESGGGLVQPGGSLRLSCAASGFTFSWYDMTWVRQAPGKGLEWVSSISPSGGYTKYADSVKGRFTISRDNSKNTLYLQMNSLRAEDTAVYYCTTEFYDYLDVWGKGTTVTVSS
VL: DIQMTQSPGTLSLSPGEGATLSCRASQSVSSTYLAWYQQKPGQAPRLLIYEASKRATGTPARFSGSGSGTDFTLSISSLEPEDFAVYYCQHRHNWPPQWTFGQGTKVEVK
notes: full length IgG1 made from a human Fab phage clone; also called ATCC PTA-6258
With B2, in experiment [1], the “IC50 IL-1β” value is 5.01 µg/mL, the “IC50 IL-6” value is 0.9 nM, the “IC50 IL-12” value stood at 0.715 µg/mL and the “IC50 TNF-α” value is 5.51 µg/mL. Further, the Kd in experiment [3] worked out at 30 nM. The binding result in experiment [6] is “no binding (tested: 10 ug/ml (log 1.0))”. Besides, in experiment [4], the binding result is on record as “binds”. The binding result in experiment [5] was “binds”.

B3: human anti-HMG1 antibody S6 (antibody, V domains shown)
VH: EVQLLESGGGLVQPGGSLRLSCAASGFTFSWYDMSWVRQAPGKGLEWVSRISPSGGYTMYADSVKGRFTISRDNSKNTLYLQMNSLRAEDTAVYYCARLEVGATSGGTAFDIWGQGTMVTVSS
VL: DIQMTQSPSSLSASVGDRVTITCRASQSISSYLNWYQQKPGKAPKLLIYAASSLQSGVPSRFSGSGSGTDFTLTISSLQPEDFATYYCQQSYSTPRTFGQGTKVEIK
notes: full length IgG1 made from a human Fab phage clone; two paragraphs print 'S4' for the PTA-6143 deposit; also called ATCC PTA-6143
For B3, in experiment [1], the “IC50 IL-1β” value was 0.0232 µg/mL, the “IC50 IL-6” value came out at 0.174 nM, the “IC50 NO” value is 4.15 µg/mL and the “IC50 TNF-α” value is 0.0182 µg/mL. In experiment [2], the “percent inhibition of HMG1 binding to RAGE” value was at least 35%. The dissociation constant (Kd) in experiment [3] turned out to be 39 nM. Also, the binding result in experiment [7] is “no binding (tested: 10 ug/ml (log 1.0))”. Besides, the binding result in experiment [6] is listed as “no binding (tested: 10 ug/ml (log 1.0))”. The binding result in experiment [5] was “binds”.

B4: human anti-HMG1 antibody E11 (antibody, IgG1, V domains shown)
VH: EVQLLESGGGLVQPGGSLRLSCAASGFTFSRYQMNWVRQAPGKGLEWVSSISPSGGHTHYADSVKGRFTISRDNSKNTLYLQMNSLRAEDTAVYYCAKDGRQGKISTVDHWGQGTLVTVSS
VL: DIQMTQSPGTLSLSPGERATLSCRASQSVRSNFLAWYQQKPGQAPRLLIYGASRRASGIPDRFSGSGFGADFTLSISRLEPEDFAVYYCQQYGSSPNTFGQGSRVEIK
notes: full length IgG1 made from a human Fab phage clone
As to B4, in experiment [1], the “IC50 IL-6” value amounted to 1.22 nM and the “IC50 NO” value is 101 µg/mL. Besides, in experiment [7], the binding result is listed as “no binding (tested: 10 ug/ml (log 1.0))”. Besides, the binding result in experiment [6] was “no binding (tested: 10 ug/ml (log 1.0))”.
